In patent US20250152717A1 (published 2025):

Target: T1, KRAS G12V (same sequence in NRAS and HRAS G12V) peptide on HLA-A*11:01 (human)
T1 peptide: VVGAVGVGK
Assay: stated without data

B1: TCR 11N6 (TCR, V domains shown)
Valpha: QQGEEDPQALSIQEGENATMNCSYKTSINNLQWYRQNSGRGLVHLILIRSNEREKHSGRLRVTLDTSKKSSSLLITASRAADTASYFCATDPMNTNAGKSTFGDGTTLTVKP
Vbeta: GVAQSPRYKIIEKRQSVAFWCNPISGHATLYWYQQILGQGPKLLIQFQNNGVVDDSQLPKDRFSAERLKGVDSTLKIQPAKLEDSAVYLCASSPYGGSVSYEQYFGPGTRLTVT
- binding result: recognises
